# Measured values as given in the supplement of paper PMC9233669.
# This sample holds only a part of the variants without activity.
# Tests used:
# biotinyl-Val-oxazolone = experiment: self-aminoacylation, catalytic enhancement (BVO) (fold over background); higher = more active; k-Seq, kA / k0A0; sequences stand for … in GGGAAUGGAUCCACAUCUACGAAUUC…UUCACUGCAGACUUGACGAAGCUG
# Method in brief: (§1)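 The uncatalyzed rate is the low-activity peak of a bimodal Gaussian fit, and catalytic enhancement is median kA divided by it. The kA values came from pseudo-first-order fits, with 1000 bootstraps, of per-sequence fraction reacted measured by streptavidin capture, triplicate qPCR and Illumina sequencing. Mutagenized RNA pools with a 21-nt variable region (0.43 μM) were reacted with each biotinyl-aminoacyl-oxazolone at 2–1250 μM in 50 μL HEPES/NaCl/KCl/MgCl2/CaCl2 buffer with 5% acetonitrile, pH 6.9–7.0, for 90 minutes at room temperature.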
# biotinyl-Ile-oxazolone = experiment: self-aminoacylation, catalytic enhancement (BIO) (fold over background); higher = more active; k-Seq, kA / k0A0; sequences stand for … in GGGAAUGGAUCCACAUCUACGAAUUC…UUCACUGCAGACUUGACGAAGCUG
# Method in brief: as §1
# biotinyl-Phe-oxazolone = experiment: self-aminoacylation, catalytic enhancement (BFO) (fold over background); higher = more active; k-Seq, kA / k0A0; sequences stand for … in GGGAAUGGAUCCACAUCUACGAAUUC…UUCACUGCAGACUUGACGAAGCUG
# Method in brief: as §1
# biotinyl-Leu-oxazolone = experiment: self-aminoacylation, catalytic enhancement (BLO) (fold over background); higher = more active; k-Seq, kA / k0A0; sequences stand for … in GGGAAUGGAUCCACAUCUACGAAUUC…UUCACUGCAGACUUGACGAAGCUG
# Method in brief: as §1
# biotinyl-Met-oxazolone = experiment: self-aminoacylation, catalytic enhancement (BMO) (fold over background); higher = more active; k-Seq, kA / k0A0; sequences stand for … in GGGAAUGGAUCCACAUCUACGAAUUC…UUCACUGCAGACUUGACGAAGCUG
# Method in brief: as §1
# biotinyl-Trp-oxazolone = experiment: self-aminoacylation, catalytic enhancement (BWO) (fold over background); higher = more active; k-Seq, kA / k0A0; sequences stand for … in GGGAAUGGAUCCACAUCUACGAAUUC…UUCACUGCAGACUUGACGAAGCUG
# Method in brief: as §1
Sequence,self-aminoacylation (biotinyl-Val-oxazolone),self-aminoacylation (biotinyl-Ile-oxazolone),self-aminoacylation (biotinyl-Phe-oxazolone),self-aminoacylation (biotinyl-Leu-oxazolone),self-aminoacylation (biotinyl-Met-oxazolone),self-aminoacylation (biotinyl-Trp-oxazolone)
AUUUACCUAGGUCAUCGGGUC [Fam2.2 aminoacylation ribozyme variant],1.27,1.12,0.638,1.33,1.26,1.02
AUUUACCUAGGUCAUCGGGUU [Fam2.2 aminoacylation ribozyme variant],4.59,5.12,36.2,11.7,8.02,6.98
AUUUACCUAGGUCAUGGGGUG [Fam2.2 aminoacylation ribozyme variant],2.85,3.3,25.7,6.06,4.54,4.29
AUUUACCUAGGUCGUCGGGUG [Fam2.2 aminoacylation ribozyme variant],1.82,1.46,9.82,1.88,1.61,0.963
AUUUACCUAGGUCUUCGGGUG [Fam2.2 aminoacylation ribozyme variant],3.38,2.84,24.9,4.16,4.28,3.92
AUUUCCCUGGGCAUCGAGUGA [Fam2.1 aminoacylation ribozyme variant],3.21,3,32.6,6.7,5.56,6.79
AUUUCCCUGGUCAGCGAGUGA [Fam2.1 aminoacylation ribozyme variant],3.85,4.15,37.4,6.54,6.28,6.86
AUUUGCCUAGGUCAUCGGGUG [Fam2.2 aminoacylation ribozyme variant],14.1,16,195,38.3,28,24.6
CAACACUUCAAACAAUCGGUC [Fam1B.1 aminoacylation ribozyme variant],1.38,1.36,78.2,2.11,1.84,38.2
CAACACUUCAAGCAAUCGGCC [Fam1B.1 aminoacylation ribozyme variant],2.58,2.57,4.12,2.45,2.64,3.87
CAACACUUCAAGCAAUCGGUC [Fam1B.1 aminoacylation ribozyme variant],1.27,1.13,43.1,1.55,1.11,20.1
CAACACUUCAAGCAUUCGGUC [Fam1B.1 aminoacylation ribozyme variant],1.76,1.71,1.04,1.58,1.61,1.83
CAACACUUCAAGGAAUCGGUC [Fam1B.1 aminoacylation ribozyme variant],1.03,1.47,3.28,0.95,1.07,3.1
CAACACUUCAAGUAAUCGGUC [Fam1B.1 aminoacylation ribozyme variant],0.899,0.979,10.4,1.19,1.05,7.22
CAACACUUCAAUCAAUCGGUC [Fam1B.1 aminoacylation ribozyme variant],1.05,1.06,34.9,1.66,1.19,19.1
CAACACUUCCAGCAAUCGGUC [Fam1B.1 aminoacylation ribozyme variant],1.26,1.41,0.986,1.1,1.1,1.01
CAACUCCAAACAAUCGGUCUG [Fam1A.1 aminoacylation ribozyme variant],1.14,1.31,6.95,1.1,1.36,3.05
CAACUCUUCAAGCAAUCGGUC [Fam1B.1 aminoacylation ribozyme variant],1.04,1.05,9.86,1.33,1.16,6.16
CAACUUCAAACAAUCGGUGUG [Fam1A.1 aminoacylation ribozyme variant],1.7,1.92,27.3,2.53,2.15,16.5
CAACUUGAAACAAUCGGUCUG [Fam1A.1 aminoacylation ribozyme variant],1.11,1.15,1.36,1.36,1.24,1.02
CAAUUUCAAACAAUCGGUCUG [Fam1A.1 aminoacylation ribozyme variant],0.869,1.01,9.15,0.903,1.02,5.88
CACCACUUCAAGCAAUCGGUC [Fam1B.1 aminoacylation ribozyme variant],1.28,1.11,40.5,1.83,1.33,21.8
CAGAUUGCUAAUAGUCGCAAG [Fam3.1 aminoacylation ribozyme variant],1.28,1.37,1.9,1.23,1.24,1.31
CAGUUUGCGAAUAGUCGCAAG [Fam3.1 aminoacylation ribozyme variant],1.59,1.79,5.57,2.67,1.93,2
CAGUUUGCUAAUAGUCGGAAG [Fam3.1 aminoacylation ribozyme variant],1.35,1.27,3.05,1.11,1.26,1.43
